Experiment: yeast display, Sf9 membrane polyspecificity reagent, FACS + sequencing; frameworks hold sequencing errors
How it was run: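 Using colony PCR, genes from sorted yeast display clones were amplified, then sequenced on MiSeq at 2 × 250 and filtered by CDR length. The clones had been stained with 10% biotinylated, detergent-solubilized Sf9 membrane reagent for 1 hour at 4 °C and sorted by FACS into low and high (top ~1%) gates on anti-HA and streptavidin fluorescence. Polyreactivity labels come from the gate of origin.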

Sequence | polyreactivity (PSR sort gate)
QVQLVESGGGLVQAGGSLRLSCAASGRTFYLYAMGWYRQAPGTERELVADITSGGSTYYADSVKGRFTISRDNAKNTVYLQMNSLKPEDTAVYYCAADWVTFYSYTEYDYWGQGTQVTVSS | low polyreactivity
QVQLVESGGGLVQAGGSLRLSCAASGSIFDIYGMGWYRKAPGKERELVASISGGAGSTNYADSVKGRFTISRDNAKNTVYLQMNSLKPEDTAVYYCAAEVYVPDYFQHKFDVEYEYWGQGTQVTVSS | low polyreactivity
QVQLVESGGGIVQAGGSLRLSCAASGFTYVYYVMGWYRQAPGKDRELVAAINAGGGSTYYADSVKGRFTNSRDIAKNTVYLQMNSLKPEDTADYYCNARVRVRLGRNWSSYYYWGQGTQVTVSS | high polyreactivity
QVQLVESGGGLVQAGGCLRVSCAASGFISGYYAMGGYSQAPGIERELVAAIDWIGGSTYYAESVKGRFTISRDNAKNTEYFQMNSLKPEDTAVYDCAASYKYGSSWGDGYWGQGTQVTVSS | low polyreactivity
QVQLVESGGGLVQGGGSLRLSCAASGRIGKYAMGWYRQAPGKERELVATISSTGTTNYADSVKGRFTISRDNAKNTVYLQMNSLKPEDTAVYYCAARWEYVGYRRRYYRFDYWGQGTQVTVSS | high polyreactivity
QVQLVESGVGLVQAGGSLRLSCAASGRIFATNAMGWYRQAPGKERELVATITRSAGRTYYADSVKGRFTISRDNAKNTVYLQMNSLKPEDTAVYYCAASYWDTEPGYREYDYWGQGTQVTVSS | low polyreactivity
QVQLVESGGGLVQAGGSLRLSCAASGGTFPTNAMGWYRQAPGKERELVAAITSSGVRTYYADSVKGRFTISRDNAKNTVYLQMNSLKPEDTAVYYCATYSYTWMNYYWGQGTQVTVSS | high polyreactivity
QVQLLESGGGLVQAGGSLRLSCAAYGFIFVSNGMGWYRQAPGKEREFVASITSIGGSTYYADSVKGRFTISRDNAKNTVYLQMNSLKPEDTAVYYCAARDIALNAVGRPKEYNRDYWGQGTQVTVSS | low polyreactivity
QVQLVESGGALVQAGGSLRLSCAASRFTFTRYVMGWYSQAPGKERELVAAISINGGRTYYADSVKGRFTISRDNAKNTVYLQMNSLKPEDTAVYDCAAERYYWYTEMGYWGQGTQVTVSS | high polyreactivity
QVQLVESGGGLVQAGGSLRLSCAPSGRIFWYNAMGWYRQAPGKERELVAGISSSGTRTYYADSVKGRFTISRDNAKNTVYLQMNSLKPEDTAVYYCAAGYDLSYYWYDYWGQGTQVTVSS | low polyreactivity
QVQIVESGGGLVQAGGSLRLSCAASGYTFRFNAMGWYRQAPGKEREFVAAIDFGGAGTYYADSVKGRFTISRDNAKNTVYLQMNSLKPEDTAVYYCNARDGVTTEFDYWGQGTQVTVSS | low polyreactivity
QVQLVESGGGLVQAGGSLRLICAASGSTFSDNAMGWYRPAPGKERELVAAISRSGGSTYYADSVKGRFTLSRDNANNTVYLQMNSLKPEDTAFYYGATKSVLTGYDSWGQGTKVTVSS | high polyreactivity
LVQLVESGGGLVQAGGSLRLSGAASGSPFRQNAMGWYRQAPGKERELVAAITWRGDNTYYADSVKGRFTISRDNAKKPVYFQRNSLKPDDTAVDYCAARWSYRLYWGYGYWGQGTEVTVSS | low polyreactivity
QVQLVESGGGLGQARGSLRLSRAASGSPFEYNAMGWYRPAPGKERELVASSTNYADSVKGRFTISRDNAKNTVYLQMNSLKPEVTAVNSCAREPGVNRNHDYWGQGSQVTVSS | low polyreactivity
QVQLVESGGGLVQAGGSLRLSCAASGRILDYNAMGWYIQAPGKERELVAAITLNGGGTYYADSVKGRFTISRDNAKNSVYLQMNSLKPEDTAVYYCNADYRRYPEFDYWGQGTHVTVSS | high polyreactivity
QVQLVESGGGLVQAGGSLRISCDASGSIYSSNALGWYSQAPGKERELVAAISSSGSRTYYADSVKGRFTISRDKALITVYVQMNSLIPVDTAVDYWAAVIRYTRSYDYWGQGTQVTVSS | high polyreactivity
QVQLVESGGGLVQAGGSLRLSCAASGITFRGYAMGWYRQAPGKERELVADITWNGGSTYYADSVKGRFTISRDNAKNTVYLQMNSLKPEDTAVYYCAADGYPIYWSSYRFYYWGQGTQVTVSS | high polyreactivity
QVQLVESGGGLVQAGGSLRISCAASGRTFYGNAMGWYRQAPGKEREFFAAISASGGSTYYADSVKGRFTISRDNAKNTVYLQLNSLKPEDTSVYYCATDLGAFSVPYSPYDYWGLGTQVTVSS | low polyreactivity
QVQLVESGGGLVQAGGSLRLSCAASGRISNDYAMGWYRQAPGKVRELVATITFSGGDTYYADSVKGRFTISRDNAKNTVYLQMNSLKPEDTSVYYCAASKWRSYSGGWWRLLFDYWGQGTQVTVSS | low polyreactivity
QVQLVESGGGLVQEGGSLRLTCAASGSTFIGNAMGGYRQAPGKERELVAAITSSGGSTYYADSVKGRFTISRDNAKNTVYLQMNSLKPEDTALYYCAAKTWARGHYGYQARSNYWGQGTQVTVSS | high polyreactivity
QVQLVESGGGLVQAGGSLRLSCAATGRIFHSNAMGWYRQAPGKERELVAVITKNGGSTYYADSVKGRFTISRDNAKNTVYLQMNSLKPEDTAVYYCNKRAQYTYYGRDYWGQGTQVTVSS | high polyreactivity
QVQLVESGGGLVQAGGSLRLSCAASGFIFKKYAMGWYRQAPGKERELVAAISWSGGNTYYADSVKGRFTISRDNAKNTVYLQMNSLKPEDTAVYYCNAAGRRYKFDYWGQGTQVTVSS | high polyreactivity

Sequence | polyreactivity (PSR sort gate)
QVQLVESGGGLVQAGGSLSLSCAASGRTFYANAMGWNRQAPGKERELVATITRGGSTNYADSVKGRFTISRDNAKNTVYLQMNSLKPEDTAVYYCAARSYTSSHRHYYWGQGTQVTVSS | low polyreactivity
QVQLVESGGGLVQAGGSLRLSCAASGFIYTSYTMGWYRQAPGKERELVAAISYRGGRTYYADSVNGRFTISRDNAKNTVYLQMNSLKPEVTAVYYCAADRVNREFDYWGQGTQVTVSS | high polyreactivity
QVQLVESGGGLVQAGGSLRLSCAASGRTFTRYAMGWYRQAPGKERELVAAISRSGGSTHYADSVKGRFTISRDNAKNTVYLQMNSLKPEDTAVYFCNTVGYRGRSNSRFYYWGQGTQVTVSS | high polyreactivity
QVQLVESGGGLVQAGGSLRLSCAASGSIFYSNAMGWYRQAPGKERELVAAITRRGGSTYYADSVKGRFTISRDNAKNTVYLQMNSLKPEDTAVYYCNRDPDIYIGYDYWGQGTQVTVSS | high polyreactivity
QVQLVESGGGLVQAGGSLRLSCAASGRTFYSNAMGWYRQAPGKERELVAAISRRGGRTYYADSVKGRFTISRDNAKNTVYLQMNSLKPEDTAVYYCAADAYLYQPEDYYYWGQGTQVTVSS | high polyreactivity
QVQLVESGGGLVQAGGSLRLSCAPSGYIFDIYAMVWYRQAPGKERELVAGITRNGGSTYYADSVKGRFTISRDNAKNTVYLQMNSLKPEDTAVYYCAAGWITRSLYHKYYSWGQGTQVTVSS | high polyreactivity
QVQLVESGGGLVQAGGSLRLSCAASGSTFTGNAMGWYSQAPGKERELVAAISRSGGRTYYADSVKGRFTISRDNAKNTVYLQMNSLKPEDTAVYYCNAVRNRGQRTAFDYWGQGTQVTVSS | high polyreactivity
QVQLVESGGGLVQAGGSLRLSCAASGLIFLEYAMGWYRQAPGKERELLAAISTSGGSTYYADSVKGRFTISRDNAKNTVYLQMNSLKPEDTAVYYCAAEPVYNYYFHDGDYWGQGTQVTVSS | low polyreactivity
QVQLVESGAGLVQAGGSLRLSCAASGSSFYFNAMGLYRQAPGKERELVAAIDWSGGSTYYADSVKGRFTISRDNAKNTVYLQMNSLKPEDTAVYYCAAPYHYYGNTVGYADYDYWGQVTQVTVSS | low polyreactivity
QVQLVESGGGLVQAGGSLRLSCAASGSTFTVNGMGWYRQAPGKERELVASITWSGGSTYYADSVKGRFTISRDNAKISVYLHMTSLIPEDTAVYYCAADEKLYITGYDYWGQGTQVTVSS | low polyreactivity
QDKLVESGGGLVKAGGSLRLSCAASGSIFATYAMVWYRQAPGKERELVAAISKSTDSTYYADSVKGRFTISRDNAKNNVYLQMNSQKPEDTAVYYCAAVQRYKGLQDDSWGQGTQVTVSS | high polyreactivity
QVQLVESGGGLVQAGGSLRLSCAASGSTFVHYAMGWYRQAPGKERELVADITTGDITNYADSVKGRFTISRDNAKNTVYLQMNSLKPEDTAVYYCAVDHQNSPFHVGRDEYWGQGTQVTVSS | low polyreactivity
QVQLVESGGGLVQAGGSLRLSCAASGITFPYYDMGWYRQAAGKERELVAAIDWSGATSYYADSVKGRFTISRDNAKNTVYLQMNSLKPEDTAVYHCNADPPLDLWYVTNRIYHLYDYWGQGTQVTVSS | high polyreactivity
QVQLVESGGGLVQAGGSLRLSCAASGSTFNGNDMGWYRQAPGKERELVATISDGGRTYYADSVKGRFTISRDNAKNTVYLQRNSLKPEDTAVYYCAAPVYVPRAWFYYWGQGTQVTVSS | low polyreactivity
QVQLVESGGGLVQAGGSLRLSCAASGFIFRPYVMGWYRQAPGKERELVAAISRSGSSTYYADSVKGRFTISRDNAKNTVYLQMNSLKPEDTAVYYCNAVYYLYKGDYWGQGTQVTVSS | high polyreactivity
QVQLVESGGGLVQAGGSLRLSSADSGRTFRYYAMRWYRPAPGKERELVAAITRGGRTNYADSVKGRFTISRDNAKNTVYLQMNSLKPEDTAVYYCAAVLYTPNKYASYYWGQGTQVTVSS | high polyreactivity
QVQLVESGGGLVQAGGRLRLSCAASGRIFYFYDMGWYRQAPGTERELGAAISRGGSTNYADSVKGRFTISRDNAKNTVYLQMNRLKPQDTAVYYCNAGLYDLRDIAGYSDYDYWGQGTQVTVSS | low polyreactivity
QVQLGESGGGLVQAGGSLRLSCAASGFIFFSNAMGWYRQAPGKERELVAAIRSGGSTNYADSVKGRFTISRDNAKNTVYLQMNSQKPEDTAVYYCNVLWLRSRRKYDYWGQGTQVTVSS | low polyreactivity
QVQLVESGGGLVQAGGSLRLSCAASGRIFARYAMGWYRPAPGKERELVAAITKSVGSTYYADSVKGRFTISRDNAKYTVYLQMNRLKPEDTAVYYCNAVARGYGYDYWGQGTQVTVSS | high polyreactivity
QVQLVESGGGLVQAGGSLRFSCAASGSISSQYGMGWYRQEPGKVRELVATIRDGGPTNYADSVKGRFTISRDNAKYTVYLQMNSLKPEDTAVYSCAALYWYYYTWPLYDYWGQGTQVTVSS | low polyreactivity
QVQLVESGGGLVQAGGSLRLSCAASGSTFLLYDMGWYRQAPGKERELVAAITWSGGSTYYADSVKGRFTISRDNAKNTVYLQMNSLKPEDTEVYYCAADSLGDRYYYWGQGTQVTVSS | low polyreactivity

Source: the nanobody polyreactivity screen of Harvey et al. (2022)
